Three molecules from publication PMC3173227 (The Journal of Biological Chemistry, 2011) can be followed below.

B1: human Ube2T (enzyme, UniProt Q9NPD8 1-197, looked up)
chain: MQRASRLKRELHMLATEPPPGITCWQDKDQMDDLRAQILGGANTPYEKGVFKLEVIIPERYPFEPPQIRFLTPIYHPNIDSAGRICLDVLKLPPKGAWRPSLNIATVLTSIQLLMSEPNPDDPLMADISSEFKYNKPAFLKNARQWTEKHARQKQKADEEEMLDNLPEAGDSRVHNSTQKRKASQLVGIEKKFHPDV
B2: human FANCL RING domain (residues 289-375) (domain or fragment, UniProt Q9NW38 289-375, looked up)
chain: EIDFPARAILEKSDFTMDCGICYAYQLDGTIPDQVCDNSQCGQPFHQICLYEWLRGLLTSRQSFNIIFGECPYCSKPITLKMSGRKH

Assay [1] has as its target human FANCL RING domain (residues 289-375) (human) (UniProt Q9NW38). Kind of assay: ITC.
In assay [2] the target is B2. Kind of assay: SEC.
Assay [3] has as its target B1. Briefly: ITC.

The molecule “Ube2T-F63A (from UniProt Q9NPD8 1-197) (enzyme)” came in with a Kd in assay [1] of 5000 nM.

As to B1, the “stoichiometry N” value in assay [2] is 1. In assay [3], B2 registered a Kd of 454 nM.
